Test results from patent EP4658690A2 (dated 2025).

Biological target: T1, human CD180/MD-1 on HEK293 cells (human, UniProt Q99467 24-661; O95711 21-162)
T1 construct: whole, on cells; CD180 co-expressed with MD-1 on engineered HEK293 cells; also called HEK293 CD180/MD-1 cells; CD180/MD1 HEK293 cells
T1 sequence (looked up) 1: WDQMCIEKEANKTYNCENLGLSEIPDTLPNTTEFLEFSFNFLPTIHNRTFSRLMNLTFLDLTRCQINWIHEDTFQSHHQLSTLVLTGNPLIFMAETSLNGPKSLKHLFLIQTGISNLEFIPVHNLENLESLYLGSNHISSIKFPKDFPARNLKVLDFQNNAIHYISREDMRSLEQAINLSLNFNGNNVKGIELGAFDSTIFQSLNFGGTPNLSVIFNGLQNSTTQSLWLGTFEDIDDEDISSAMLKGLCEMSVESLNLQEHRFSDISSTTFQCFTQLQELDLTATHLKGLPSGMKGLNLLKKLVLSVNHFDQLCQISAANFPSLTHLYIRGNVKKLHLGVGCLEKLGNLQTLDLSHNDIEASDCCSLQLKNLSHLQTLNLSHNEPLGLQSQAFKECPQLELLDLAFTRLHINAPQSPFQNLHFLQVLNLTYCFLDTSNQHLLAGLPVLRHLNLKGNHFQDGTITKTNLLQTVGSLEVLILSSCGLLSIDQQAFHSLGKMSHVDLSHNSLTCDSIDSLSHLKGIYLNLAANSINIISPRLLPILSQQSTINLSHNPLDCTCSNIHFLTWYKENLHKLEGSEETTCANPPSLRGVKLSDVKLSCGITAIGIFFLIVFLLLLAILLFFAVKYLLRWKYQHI
T1 sequence (looked up) 2: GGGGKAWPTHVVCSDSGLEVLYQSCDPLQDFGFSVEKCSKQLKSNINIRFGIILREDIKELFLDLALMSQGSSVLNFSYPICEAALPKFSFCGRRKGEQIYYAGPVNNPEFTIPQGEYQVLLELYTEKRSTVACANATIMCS
Experiment: flow cytometry (called cell-based ELISA) on HEK293 CD180/MD-1 cells, MFI fitted to a 4-parameter curve

EC50: 4 nM
B1: CHAMPmAb-014 (antibody, V domains shown)
VH: EVQLVESGGGLVQPGRSLRLSCTTSGFTFADYAMHWVRQTPGQGLEWVSGISWNGGTMGYADSVKGRFTISRDIAKNSLYLQMNSLRAEDTALYYCAKDIAYSRGYFQHWGQGTLVTVSS
VL: not shown
